Test results published in paper PMC10497415, “Lis1 relieves cytoplasmic dynein-1 autoinhibition by acting as a molecular wedge” (Nature Structural & Molecular Biology, 2023).

Biological target: the molecule itself
Assay: cryo-EM structure; 150 nM biotinylated dynein^E2488Q, 650 nM Lis1, 1.2 mM ATP, 1.2 mM Na3VO4, on streptavidin affinity grids; 4.1 Å map (C2), 3.6 Å after symmetry expansion

B1: S. cerevisiae Lis1 (Pac1) (natural protein)
chain: MTNWQQQLPLTDTQKNELDKSVLRYLNWNYKQTVRHEHAQDYESVRHAIVTLSGFLLQESVDRQEFISNNDTSNESMVDIDELLLPKKWNSIVRLQKKIIELEQNTETLVSQIKDLNTQVSELAQFKPTTSNGTSAHNVLKWIPRNLPSCLINVESSVTSVKLHPNLPIVFVATDHGKLYAFDLFNYTIPLASLQSHTKAITSMDVLFTNYTNSSKKNYLVIVTASKDLQIHVFKWVSEECKFQQIRSLLGHEHIVSAVKIWQKNNDVHIASCSRDQTVKIWDFHNGWSLKTFQPHSQWVRSIDVLGDYIISGSHDTTLRLTHWPSGNGLSVGTGHEFPIEKVKFIHFIEDSPEIRFRTPSTDRYKNWGMQYCVSASRDRTIKIWEIPLPTLMAHRAPIPNPTDSNFRCVLTLKGHLSWVRDISIRGQYLFSCADDKSVRCWDLNTGQCLHVWEKLHTGFVNCLDLDVDFDSNVTPRQMMVTGGLDCKSNVFMR
notes: Lis1 (Pac1), S. cerevisiae; a dimer; only the β-propellers are spoken of in the structure; also called yeast Lis1; source: S. cerevisiae, purified (Ni-NTA, IgG Sepharose, TEV cleavage)
- binding result: binds
